# Patent US20190257837
# T1: human recombinant nidogen-1 (intact, incubated without proteases), P14543
# T1 chain: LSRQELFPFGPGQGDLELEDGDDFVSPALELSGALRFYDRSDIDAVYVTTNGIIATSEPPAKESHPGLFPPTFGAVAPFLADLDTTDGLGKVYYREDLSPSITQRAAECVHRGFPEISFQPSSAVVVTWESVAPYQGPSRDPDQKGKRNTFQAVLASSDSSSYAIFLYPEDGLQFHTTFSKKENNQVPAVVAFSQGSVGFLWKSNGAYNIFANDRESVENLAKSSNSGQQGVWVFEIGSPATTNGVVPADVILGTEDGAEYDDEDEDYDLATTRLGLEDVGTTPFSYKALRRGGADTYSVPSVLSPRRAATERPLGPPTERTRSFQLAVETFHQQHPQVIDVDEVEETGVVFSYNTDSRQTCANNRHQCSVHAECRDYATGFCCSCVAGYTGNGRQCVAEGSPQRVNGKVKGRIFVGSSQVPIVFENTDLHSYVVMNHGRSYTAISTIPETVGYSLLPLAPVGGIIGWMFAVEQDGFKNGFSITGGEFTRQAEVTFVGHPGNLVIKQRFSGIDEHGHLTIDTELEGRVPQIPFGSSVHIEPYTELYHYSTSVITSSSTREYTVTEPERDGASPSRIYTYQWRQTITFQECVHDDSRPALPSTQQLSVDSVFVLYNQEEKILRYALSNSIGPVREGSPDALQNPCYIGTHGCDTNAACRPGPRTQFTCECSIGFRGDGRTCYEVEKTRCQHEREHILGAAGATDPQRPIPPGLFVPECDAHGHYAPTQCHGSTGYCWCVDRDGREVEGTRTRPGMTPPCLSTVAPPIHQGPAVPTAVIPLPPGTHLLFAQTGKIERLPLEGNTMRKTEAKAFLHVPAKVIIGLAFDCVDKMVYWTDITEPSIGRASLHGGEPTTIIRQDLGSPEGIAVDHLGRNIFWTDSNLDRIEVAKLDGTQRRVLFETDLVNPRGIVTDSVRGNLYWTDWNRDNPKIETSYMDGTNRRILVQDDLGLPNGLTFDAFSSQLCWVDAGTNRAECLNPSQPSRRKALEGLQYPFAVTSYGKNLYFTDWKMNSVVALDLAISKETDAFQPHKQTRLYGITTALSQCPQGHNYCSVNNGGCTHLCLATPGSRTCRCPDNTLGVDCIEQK
# B1: human recombinant cathepsin S (protein)
# chain: LPDSVDWREKGCVTEVKYQGSCGACWAFSAVGALEAQLKLKTGKLVSLSAQNLVDCSTEKYGNKGCNGGFMTTAFQYIIDNKGIDSDASYPYKAMDQKCQYDSKYRAATCSKYTELPYGREDVLKEAVANKGPVSVGVDARHPSFFLYRSGVYYEPSCTQNVNHGVLVVGYGDLNGKEYWLVKNSWGHNFGEEGYIRMARNKGNHCGIASFPSYPEI
# Molecular target: T1, human recombinant nidogen-1 (intact, …)
protein,measurement,value
B1,NIC levels after incubating nidogen-1 with CatS (competitive NIC ELISA),Approximately 5-fold higher levels of NIC were detected after incubating nidogen-1 with CatS for 24 h
